Reference: PMC9427789, “Prediction of the structural interface between fibroblast growth factor23 and Burosumab using alanine scanning and molecular docking” (Scientific Reports, 2022)
Changes are numbered by the printed parent chain. Numbers in names are those of the source. One block for each binder: values may come before it.

Legend:
Details in all cases: both partners purified
[1] = target: T1, His-SUMO-FGF23 (N-terminal domain of human FGF23, wild type) (Homo sapiens, UniProt Q9GZV9); assay: ELISA; spot-check ELISA: FGF23 coated at 2 µg/mL on Maxisorp plates (4 °C overnight), Burosumab or its alanine mutants at two concentrations (0.04 and 1.2 µg/mL), room temperature 2 h, anti-human IgG H&L-HRP, A450; fold change from A450 against wild-type Burosumab
T1 construct: FGF23, human, N-terminal domain; also called wild-type FGF23; source: E. coli BL21(DE3), purified (Ni-NTA); not shown: His, N-terminal, kept; SUMO, N-terminal, kept

[2] = target: T2, His-SUMO-FGF23 Y124A (N-terminal domain of human FGF23) (Homo sapiens, UniProt Q9GZV9, Y124A); assay: ELISA; indirect ELISA: FGF23 or its mutants coated at 2 µg/mL on Maxisorp plates (4 °C overnight), Burosumab or its variants three-fold serially diluted in PBS from 9 µg/mL, room temperature 2 h, anti-human IgG H&L-HRP, A450; fold change from Kd values against the wild type
T2 construct: FGF23, human, N-terminal domain; source: E. coli BL21(DE3), purified (Ni-NTA); not shown: His, N-terminal, kept; SUMO, N-terminal, kept

[3] = target: T3, His-SUMO-FGF23 H117A (N-terminal domain of human FGF23) (Homo sapiens, UniProt Q9GZV9, H117A); assay: as above
T3 construct: FGF23, human, N-terminal domain; source: E. coli BL21(DE3), purified (Ni-NTA); not shown: His, N-terminal, kept; SUMO, N-terminal, kept

[4] = target: T4, His-SUMO-FGF23 R160A-R161A (N-terminal domain of human FGF23) (Homo sapiens, UniProt Q9GZV9, R160A | R161A); assay: as above
T4 construct: FGF23, human, N-terminal domain; also called combined R160A and R161A; double alanine mutant; source: E. coli BL21(DE3), purified (Ni-NTA); not shown: His, N-terminal, kept; SUMO, N-terminal, kept

[5] = target: T1, His-SUMO-FGF23 (N-terminal domain of …); assay: as above

T1 sequence (Q9GZV9 25-204): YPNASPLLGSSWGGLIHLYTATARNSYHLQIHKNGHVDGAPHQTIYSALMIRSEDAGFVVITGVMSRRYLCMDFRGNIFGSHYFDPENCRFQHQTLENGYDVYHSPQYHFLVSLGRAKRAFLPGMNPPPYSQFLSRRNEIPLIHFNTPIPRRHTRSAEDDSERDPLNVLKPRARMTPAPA
T3 sequence (Q9GZV9 25-204 H117A): as the sequence (Q9GZV9 25-204) above, with H93A counted along it
T2 sequence (Q9GZV9 25-204 Y124A): as the sequence (Q9GZV9 25-204) above, with Y100A counted along it
T4 sequence (Q9GZV9 25-204 R160A/R161A): as the sequence (Q9GZV9 25-204) above, with R136A, R137A counted along it

fold improvement of binding affinity against wild-type Burosumab [1]: 1.2 fold
B2: Burosumab VH:V97A (antibody, V domains shown)
VH: QVQLVQSGAEVKKPGASVKVSCKASGYTFTNHYMHWVRQAPGQGLEWMGIINPISGSTSNAQKFQGRVTMTRDTSTSTVYMELSSLRSEDTAVYYCARDIADAFDFWGQGTMVTVSS
VL: AIQLTQSPSSLSASVGDRVTITCRASQGISSALVWYQQKPGKAPKLLIYDASSLESGVPSRFSGSGSGTDFTLTISSLQPEDFATYYCQQFNDYFTFGPGTKVDIK
notes: as the heavy chain of m1; as the light chain of m1; source: HEK293-F FreeStyle, transiently transfected, purified (Protein A agarose)

fold improvement of binding affinity against wild-type Burosumab [5]: 1.6 fold
B3: Burosumab VL:A32S (antibody, V domains shown)
VH: B2 VH with A101V
VL: B2 VL with A32S
notes: as for B2

fold improvement of binding against wild-type Burosumab [5]: 3.7 fold
B5: Burosumab variant with combined VH:V97A and VL:A32S mutations (antibody, V domains shown)
VH: B2 VH
VL: B2 VL with A32S
notes: as the heavy chain of m1; as the light chain of m1; also called combined Burosumab variant; double mutant; source: HEK293-F FreeStyle, transiently transfected, purified (Protein A agarose)

binding result [1]: no binding
fold decrease in binding against wild-type Burosumab [1]: > 100 fold
B7: Burosumab VL:D50A (antibody, V domains shown)
VH: B2 VH with A101V
VL: B2 VL with D50A
notes: as the heavy chain of m1; as the light chain of m1; also called D50A (LCDR2); source: HEK293-F FreeStyle, transiently transfected, purified (Protein A agarose)

More lines, now with the values behind:

B1: Burosumab (wild type) (antibody, V domains shown)
VH: B2 VH with A101V
VL: B2 VL
notes: heavy chain of Burosumab; light chain of Burosumab; Whole antibody, detected with anti-human IgG H&L. The results say HEK293T, the methods HEK293-F FreeStyle; Residue numbers are Chothia; also called Crysvita; WT Burosumab; source: HEK293-F FreeStyle, transiently transfected, purified (Protein A agarose)
binding result [1]: binds
fold decrease in binding against wild-type FGF23 [2]: ~50 fold
fold decrease in binding against wild-type FGF23 [3]: > 100 fold
fold decrease in binding against wild-type FGF23 [4]: 7 fold

B4: Burosumab VL:F96A (antibody, V domains shown)
VH: B2 VH with A101V
VL: B2 VL with F95A
notes: as the heavy chain of m1; as the light chain of m1; also called F96A (LCDR3); source: HEK293-F FreeStyle, transiently transfected, purified (Protein A agarose)
fold decrease in binding against wild-type Burosumab [1]: 2.32 fold

B6: Burosumab VH:D98A (antibody, V domains shown)
VH: B2 VH with A101V, D102A
VL: B2 VL
notes: as for B2
fold decrease in binding against wild-type Burosumab [1]: 2.62 fold
